# Experimental data as given in US20200247855A1, “THERAPY AND DIAGNOSTICS” (OXFORD UNIVERSITY INNOVATION LIMITED, priority 2017, published 2020).
# Changes are numbered by the printed parent chain. “Also recorded” adds a separate entry of the source.
# T1: CCL17_HUMAN (Homo sapiens, UniProt Q92583)
# T1 sequence (Q92583 24-94): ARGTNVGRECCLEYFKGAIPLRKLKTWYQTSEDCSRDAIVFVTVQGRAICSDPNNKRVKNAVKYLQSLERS
# T2: CCL4L1_HUMAN (Homo sapiens, UniProt Q8NHW4)
# T2 sequence (Q8NHW4 24-92): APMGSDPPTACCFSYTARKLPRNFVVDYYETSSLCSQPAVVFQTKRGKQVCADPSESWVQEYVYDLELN
# T3: CCL4_HUMAN (Homo sapiens, UniProt P13236)
# T3 sequence (P13236 24-92): T2 sequence (Q8NHW4 24-92) with G47S
# T4: CCL3_HUMAN (Homo sapiens, UniProt P10147)
# T4 sequence (P10147 24-92): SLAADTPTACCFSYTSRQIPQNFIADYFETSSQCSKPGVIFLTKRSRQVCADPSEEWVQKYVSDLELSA
# T5: CCL14_HUMAN (Homo sapiens, UniProt Q16627)
# T5 sequence (Q16627 20-93): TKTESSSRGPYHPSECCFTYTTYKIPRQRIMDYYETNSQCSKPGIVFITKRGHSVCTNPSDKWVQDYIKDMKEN
# T6: CCL8_HUMAN (Homo sapiens, UniProt P80075)
# T6 sequence (P80075 24-99): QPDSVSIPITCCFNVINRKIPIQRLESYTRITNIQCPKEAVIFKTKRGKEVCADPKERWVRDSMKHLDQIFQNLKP
# T7: CCL1_HUMAN (Homo sapiens, UniProt P22362)
# T7 sequence (P22362 24-96): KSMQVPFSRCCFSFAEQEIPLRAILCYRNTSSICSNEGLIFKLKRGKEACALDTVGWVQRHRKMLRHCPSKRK
# T8: CCL16_HUMAN (Homo sapiens, UniProt O15467)
# T8 sequence (O15467 24-120): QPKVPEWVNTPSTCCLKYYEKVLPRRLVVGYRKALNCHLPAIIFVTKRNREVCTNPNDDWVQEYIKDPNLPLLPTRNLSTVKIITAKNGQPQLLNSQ
# T9: CCL18_HUMAN (Homo sapiens, UniProt P55774)
# T9 sequence (P55774 21-89): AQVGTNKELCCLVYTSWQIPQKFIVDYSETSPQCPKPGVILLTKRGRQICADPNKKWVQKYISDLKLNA
# T10: CXCL9_HUMAN (Homo sapiens, UniProt Q07325)
# T10 sequence (Q07325 23-125): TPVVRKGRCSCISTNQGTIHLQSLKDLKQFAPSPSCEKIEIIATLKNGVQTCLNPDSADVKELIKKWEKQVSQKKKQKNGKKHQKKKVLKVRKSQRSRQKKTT
# T11: CCL5_HUMAN (Homo sapiens, UniProt P13501)
# T11 sequence (P13501 24-91): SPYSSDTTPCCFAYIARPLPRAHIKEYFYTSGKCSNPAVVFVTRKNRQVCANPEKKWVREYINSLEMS
# T12: CXCL8_HUMAN (Homo sapiens, UniProt P10145)
# T12 sequence (P10145 21-99): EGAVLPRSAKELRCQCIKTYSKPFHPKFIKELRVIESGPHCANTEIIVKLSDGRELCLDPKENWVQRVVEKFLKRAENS
# B1: P1252_AMBAM: tick CKBP, Amblyomma americanum (protein, listed as Amblyomma americanum)
# chain: RGGAASVPANASIPGCGDAQTTPAAPEDQPKHYVVYRDGNGCEVKIIGTWMTTEDYNCLPDTFRKNRAPHGKVKLPASCKKTCGNAVQNLKDGTPCRKVFGDLGRRRNLIKNGCLVGACQSGLCVSGNRTISCYIPPNSTDTRATPGSFAE
# B2: P467_RHIPU: tick CKBP (evasin), Rhipicephalus pulchellus; RPU-01 stated identical (protein, listed as Rhipicephalus pulchellus)
# chain: AEKSLDSDSSGEDYELWTQGCPFLVAENRTGFGTTVSCQHNCNGAIEKVPEGEPCYTIGEDGLGRMKLNLPYNCSLGECSGGVCVPNGRSDVCFKRTWEENNKAMA
# B3: P1100_IXORI: novel CXC-binding tick CKBP, Ixodes ricinus (protein, listed as Ixodes ricinus)
# chain: GSKGSSASQSSDNSVVAKFCDTNCTINEGGKWTECKGGCFCVHVGNETVGRCMKLDGDYDYPSPKPEE
# B4: P1126_AMBCA: novel CXC-binding tick CKBP, Amblyomma cajennense (protein)
# chain: KPQILQRTDKSTDSEWDPQTCPETCIPSKNITCSDGCVCVKLGEEEEGTCFNMTGVDWLGSPSDD
# modifications: Amblyomma cajennense
# B5: P993_AMBPA: tick CKBP, Amblyomma parvum (protein, listed as Amblyomma parvum)
# chain: HRHYDPNEPCLIAGLKTPRDALPAGCRYDCMIKKNQKLRDGLLCLDVPEKVVKRMVNYLNYSCPLGTCRKGICKRKHRNVRCQKYPVFYMSPPK
# B6: P1080_IXORI: novel CXC-binding tick CKBP, Ixodes ricinus (protein, listed as Ixodes ricinus)
# chain: SAGSKGSSAPQSSGDSVVAEFCDTNCTMKKDGKWTECNGDCFCVHVGNETVGRCMRLDGDYDYTSSKTTRRNKKTRNGLCRLDRNRTTVDYPERNTREP
# B7: P458_IXORI: novel CXC-binding tick CKBP, Ixodes ricinus (protein, listed as Ixodes ricinus)
# chain: GSKQPGAAGSSSDSVEAVFCPTNCTKGTNGAWSGCSDDCICVHVGENTEGSCMKFSGDYDYPTPEA
# B8: P1074_IXORI: novel CXC-binding tick CKBP, Ixodes ricinus (protein, listed as Ixodes ricinus)
# chain: GSKESSAHQSSDDSIKAEFCDAKCTMKTDGKWTQCHGGCFCVHVGNETEGRCMRLDGDYDYPSTQPEE
# Key:
# [1] = molecular target: CCL20_HUMAN (Homo sapiens, UniProt P78556); test: Yeast surface display (YSD) FACS binding
# Protocol: (§1) Table 1. Tick CKBPs described in PCT/GB2017/050563 and [17]. Tick peptide sequences isolated in yeast surface display fluorescent-activated cell sorting (FACS) screens using a labelled chemokine. Identity with Evasin-1, 4 or 3 was calculated using BLAST. Abbreviations: IXORI—Ixodes ricinus, RHISA—Rhipicephalus sanguineus, AMBMA—Amblyomma maculatum, AMBPA—Amblyomma parvum, AMBTR—Amblyomma triste, AMBAM—Amblyomma americanum, AMBCA—Amblyomma cajennense, RHIPU—Rhipicephalus pulchellus. Table 2A-C. Binding characteristics of tick CKBPs previously disclosed (PCT/GB2017/050563 and [17]). All members of the human chemokine family[164] are listed in column 1. Binding to human chemokines was determined for 14 tick CKBPs using biolayer interferometry (BLI) with calculated Kd shown as Molar (Moles/Litre). Binding data for 17 other novel tick CKBPs was assayed using yeast surface display[17,166],with positive binding results shown as “YES”. For biolayer interferometry, His-tagged purified tick CKBP was bound to a Ni-NINTA sensor on an OctetRed® 384 system, and then binding to each chemokine listed (with the exception of CCL25, CCL26, CXCL16, CXCL17, CXCL4L1, XCL2) was assayed in a cross-binding screen at a chemokine concentration of 300 nM as described. For those chemokines showing binding to a tick CKBP in the cross-binding screen, binding assays were repeated using different doses of chemokine. Association, equilibrium and dissociation data were analysed using Octet software to create corresponding fitted curves, and used to calculate Kd. For yeast surface display, (YSD) background fluorescence was controlled for by using either an empty vector or by omitting the chemokine (i.e. using streptavidin-Alexa647 alone). An arbitrary threshold of >3 fold over background mean fluorescence intensity was chosen to describe confirmed re-tests. Where binding was detected data are indicated as “YES”. […] For yeast surface display data, empty cells represent chemokines that were not tested. Binding data published in relation to previously described tick CKBPs (Evasins-1, 4 and 3) is also shown for comparison in each of FIGS. 2A-C, with the relevant data obtained from publications: [20-22,32]. Table 3: Neutralisation of human chemokines by tick CKBPs previously disclosed (PCT/GB2017/050563 and [17]). Neutralising activity was determined using a quantitative THP1 cell migration assay in a 96-well Boyden chamber with chemokine in the bottom chamber as described. Cells migrating through to the bottom chamber at 4 hours were counted using flow cytometry in a 96 well plate format. IC50 for neutralisation was determined at the chemokine EC80 dose as determined using a range of tick CKBP concentrations. Data was analysed using GraphPad Prism to determine IC50, which is shown as Molar (Moles/Litre). Empty cells represent experiments not done. Table 4—Other previously described tick CKBPs. Tick CKBPs that were also described in PCT/GB2017/050563 and Singh et al. are indicated in “Notes”. Table 5.—Novel tick CKBPs of the invention. Table 6. […] The peptide sequence prefix indicates the identity, and suffix indicate the tick species as follows: AMBCA, Amblyomma cajennense and IXORI, Ixodes ricinus. […] Certain tick peptides e.g. P1074_IXORI were recovered from screens performed with more than one chemokine. Individual yeast clones recovered from the library were re-tested using a FACS (fluorescence activated cell sorting), experiment. The binding of the peptide to the chemokine was assayed by measuring the percent (%), of yeast cells expressing the given peptide that exceeded a background threshold set by measuring the fluorescence of the yeast library pool treated with streptavidin-[…] alone. When more than one independent yeast clone was isolated for a given peptide-chemokine combination, the mean percent shift was calculated and reported in column 3. […]
# [2] = molecular target: T1, CCL17_HUMAN; test: Yeast surface display (YSD) FACS binding
# Protocol: as §1
# [3] = test system: chemokines; details: list of chemokines bound, from the literature [18,20-22]; cited from earlier work
# [4] = molecular target: CCL13_HUMAN (Homo sapiens, UniProt Q99616); test: Biolayer interferometry (BLI) binding
# Protocol: as §1
# [5] = molecular target: CCL11_HUMAN (Homo sapiens, UniProt P51671); test: Biolayer interferometry (BLI) binding
# Protocol: as §1
# [6] = molecular target: CCL7_HUMAN (Homo sapiens, UniProt P80098); test: Biolayer interferometry (BLI) binding
# Protocol: as §1
# [7] = molecular target: T2, CCL4L1_HUMAN; test: Biolayer interferometry (BLI) binding
# Protocol: as §1
# [8] = molecular target: T3, CCL4_HUMAN; test: Biolayer interferometry (BLI) binding
# Protocol: as §1
# [9] = molecular target: T4, CCL3_HUMAN; test: Biolayer interferometry (BLI) binding
# Protocol: as §1
# [10] = molecular target: T5, CCL14_HUMAN; test: Biolayer interferometry (BLI) binding
# Protocol: as §1
# [11] = molecular target: T6, CCL8_HUMAN; test: Biolayer interferometry (BLI) binding; details: read-out: Kd, CCL8_HUMAN
# Protocol: as §1
# [12] = molecular target: T7, CCL1_HUMAN; test: Biolayer interferometry (BLI) binding
# Protocol: as §1
# [13] = molecular target: CCL2_HUMAN (Homo sapiens, UniProt P13500); test: Biolayer interferometry (BLI) binding
# Protocol: as §1
# [14] = molecular target: T8, CCL16_HUMAN; test: Biolayer interferometry (BLI) binding
# Protocol: as §1
# [15] = molecular target: T9, CCL18_HUMAN; test: Biolayer interferometry (BLI) binding
# Protocol: as §1
# [16] = molecular target: CCL3L1_HUMAN (Homo sapiens, UniProt P16619); test: Biolayer interferometry (BLI) binding
# Protocol: as §1
# [17] = molecular target: T10, CXCL9_HUMAN; test: Yeast surface display (YSD) FACS binding; details: FACS re-test; mean percent shift where several clones
# Protocol: as §1
# [18] = molecular target: T11, CCL5_HUMAN; test: Yeast surface display (YSD) FACS binding
# Protocol: as §1
# [19] = molecular target: T12, CXCL8_HUMAN; test: Yeast surface display (YSD) FACS binding; set-up: label (chemical); details: yeast surface display
# Protocol: as §1
# [20] = molecular target: CXCL12_HUMAN (Homo sapiens, UniProt P48061); test: Yeast surface display (YSD) FACS binding; details: FACS re-test; mean percent shift where several clones
# Protocol: as §1
# CCL20_HUMAN, sequence (P78556 27-96): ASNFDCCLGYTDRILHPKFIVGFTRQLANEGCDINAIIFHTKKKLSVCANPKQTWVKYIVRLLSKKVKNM
# CCL7_HUMAN, sequence (P80098 24-99): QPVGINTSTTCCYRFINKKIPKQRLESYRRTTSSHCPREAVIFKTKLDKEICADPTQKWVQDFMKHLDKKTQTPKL
# CCL13_HUMAN, sequence (Q99616 17-98): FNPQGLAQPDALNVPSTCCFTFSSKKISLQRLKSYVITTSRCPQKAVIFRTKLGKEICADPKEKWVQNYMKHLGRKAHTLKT
# CCL2_HUMAN, sequence (P13500 24-99): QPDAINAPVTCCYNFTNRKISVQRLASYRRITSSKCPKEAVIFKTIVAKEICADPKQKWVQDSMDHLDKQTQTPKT
# CXCL12_HUMAN, sequence (P48061 22-93): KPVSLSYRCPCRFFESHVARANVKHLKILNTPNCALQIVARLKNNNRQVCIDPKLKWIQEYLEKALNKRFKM
# CCL11_HUMAN, sequence (P51671 24-97): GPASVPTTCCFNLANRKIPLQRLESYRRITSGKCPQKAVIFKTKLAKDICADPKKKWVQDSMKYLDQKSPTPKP
# CCL3L1_HUMAN, sequence (P16619 24-93): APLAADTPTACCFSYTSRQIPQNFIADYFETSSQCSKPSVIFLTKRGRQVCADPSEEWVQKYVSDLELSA
molecule,measurement,setting,value
B1,"Binding to CCL20_HUMAN, YSD",[1],YES (An arbitrary threshold of >3 fold over background mean fluorescence intensity was chosen to describe confirmed re-tests. Where binding was detected data are indicated as “YES”)
same,"Binding to CCL17_HUMAN, YSD",[2],YES (An arbitrary threshold of >3 fold over background mean fluorescence intensity was chosen to describe confirmed re-tests. Where binding was detected data are indicated as “YES”)
B2,Previously described chemokine binding,[3],"CCL11, CCL24,; also recorded: CCL26, CCL2,; also recorded: CCL8, CCL7"
same,Kd,[4],2.56 nM
same,Kd,[5],1.4 nM
same,Kd,[6],2.15 nM
same,Kd,[7],4.72 nM
same,Kd,[8],13.6 nM
same,Kd,[9],0.363 nM
same,Kd,[10],4.13 nM
same,Kd,[11],2.85 nM
same,Kd,[12],53.4 nM
same,Kd,[13],0.001 nM
same,Kd,[14],14.1 nM
same,Kd,[15],16.6 nM
same,Kd,[16],0.524 nM
B3,Chemokines bound in yeast surface display and % cells over threshold fluorescence: CXCL9_HUMAN,[17],CXCL9_HUMAN 55%
B4,Chemokines bound in yeast surface display and % cells over threshold fluorescence: CXCL9_HUMAN,[17],CXCL9_HUMAN 56%
B5,"Binding to CCL5_HUMAN, YSD",[18],YES (An arbitrary threshold of >3 fold over background mean fluorescence intensity was chosen to describe confirmed re-tests. Where binding was detected data are indicated as “YES”)
same,"Binding to CCL20_HUMAN, YSD",[1],YES (An arbitrary threshold of >3 fold over background mean fluorescence intensity was chosen to describe confirmed re-tests. Where binding was detected data are indicated as “YES”)
same,"Binding to CCL17_HUMAN, YSD",[2],YES (An arbitrary threshold of >3 fold over background mean fluorescence intensity was chosen to describe confirmed re-tests. Where binding was detected data are indicated as “YES”)
same,"Binding to CXCL8_HUMAN, YSD",[19],YES (An arbitrary threshold of >3 fold over background mean fluorescence intensity was chosen to describe confirmed re-tests. Where binding was detected data are indicated as “YES”)
B6,Chemokines bound in yeast surface display and % cells over threshold fluorescence: CXCL9_HUMAN,[17],CXCL9_HUMAN 49%
same,Chemokines bound in yeast surface display and % cells over threshold fluorescence: CXCL12_HUMAN,[20],CXCL12_HUMAN 53%;
B7,Chemokines bound in yeast surface display and % cells over threshold fluorescence: CXCL9_HUMAN,[17],CXCL9_HUMAN 37%
B8,Chemokines bound in yeast surface display and % cells over threshold fluorescence: CXCL9_HUMAN,[17],CXCL9_HUMAN 35%
